How the values were obtained:
Assay type in all cases: biochemical
[1] = system: circular DNA (pUC18 plasmid); test: reaction styles in initial stage of degradation of circular DNA
Protocol: According to the standard specific activity measurement method, reaction styles in an initial stage of degradation reaction for circular DNA (pUC18 plasmid) of NucS and NucL were analyzed (referring to FIGS. 14 and 15). […] The degradation of circular plasmid DNA executed by the single strand-specific nucleolytic enzyme is considered to proceed as the molecular weight degreases due to accumulation of endo-type cleavage of single strands.

Salmon sperm DNA = test: standard specific activity measurement method (increase of absorbancy at 260 nm); conditions: 37 degrees Celsius; for specific activity: purified enzyme, 30 minutes, 20 mM Tris/HCl pH 8.5, 1 mM MgCl2, 1 mM CaCl2
Protocol: The specific activity of NucS was measured at 37 degrees Celsius in 20 mM of Tris/HCl at pH 8.5 that contains 1 mM of MgCl2 and 1 mM of CaCl2 (a measurement method under the condition described here is also referred to as a standard specific activity measurement method, hereinafter); the specific activity was 3.6×10^6 U/mg-protein, which was a very high level of specific activity. In this case, 1 U represents an amount of enzymes necessary to increase the absorbancy of 260 nm by one for 30 minutes when the enzymes works on the following as substrate: Salmon sperm DNA 1 mg/mL (manufactured by Invitrogen; Cat no. 15632-011). As a reference, as for NucS, when the specific activity of Benzonase (Registered Trademark), which was a commercially available nucleolytic enzyme that had the highest specific activity among those listed in a brochure, was measured under the conditions described in the brochure (37 degrees Celsius) with the use of the same substrate; the specific activity was 9.4×10^5 U/mg-protein. As a result, it became clear that the specific activity of NucS is about 3.8 times higher than that of Benzonase.
The specific activity of NucL was 5.6×10^4 U/mg-protein at 37 degrees Celsius in 20 mM of Tris/HCl at pH 8.5 that contains 1 mM of MgCl2 and 1 mM of CaCl2. The isoelectric point was measured by using Novex (Registered Trademark) IEF pH-3-10 gel (manufactured by Invitrogen); and then pl was 7.0. Then, it was determined that a N-terminal amino acid sequence of the purified enzyme was DSVRIHDIQGTTR. The sequence matched 12 out of 13 amino acids of putative protein (putative secreted hydrolase) coded on a genome of Streptomyces scabiei 87.22, and of putative protein (large secreted protein) coded on a genome of S. avermitilis MA-4680.

[2] = effects of temperature on enzyme activity; conditions: 15 minutes, 20 mM Tris/HCl pH 8.5, 1 mM MgCl2, 1 mM CaCl2
Protocol: Under each temperature condition, the nucleic-acid degradation activity was measured for 15 minutes in 20 mM of Tris/HCl at pH 8.5 that contained 1 mM of MgCl2 and 1 mM of CaCl2.

[3] = system: salmon DNA (double-stranded DNA) and thermally-denatured DNA (single-stranded DNA); test: reactivity test for single-stranded and double-stranded DNA; conditions: 15-minute standard specific activity measurement method
Protocol: With the use of a 15-minute standard specific activity measurement method, the reactivity of each enzyme was tested for salmon DNA (double-stranded DNA) that was dissolved at low temperatures, as well as for the same DNA (single-stranded DNA) that had been subjected to thermal denaturation at 95 degrees Celsius for 10 minutes. […] That is, it can be said that NucL is an enzyme that efficiently works on single-stranded DNA.

[4] = system: Deoxyribonucleic acid sodium salt from salmon testes; test: effects of phosphate on enzyme activity
Protocol: Effects of phosphate on NucS and NucL were examined. In 0 to 40 mM of potassium phosphate buffer at pH 8.5 that contained 1 mM of MgCl2 and 1 mM of CaCl2, the nucleic-acid degradation activity was measured at 25 degrees Celsius for 15 minutes by using, as substrate, Deoxyribonucleic acid sodium salt from salmon testes 0.4 mg/mL (manufactured by Sigma-Aldrich; Cat no. D1626-1G). […] Meanwhile, compared with NucS, NucL was excellent in resistance to phosphate. NucL could maintain 50 percent of activity even in the presence of 10 mM of potassium phosphate (referring to FIG. 11).

[5] = system: Deoxyribonucleic acid sodium salt from salmon testes; test: effects of divalent metal salt on enzyme activity; conditions: 20 mM Tris/HCl pH 8.5, 1 mM CaCl2, 25 degrees Celsius
Protocol: Effects of divalent metal salt on NucS and NucL were examined. NucS or NucL was added to a reaction solution that was obtained by adding, as substrate, Deoxyribonucleic acid sodium salt from salmon testes 0.4 mg/mL (manufactured by Sigma-Aldrich; Cat no. D1626-1G) into 20 mM of Tris/HCl at pH 8.5 that contained 1 mM of CaCl2 and 0 to 20 mM of MgCl2 or MnCl2; and the mixture was incubated in ice for 30 minutes. Then, the nucleic-acid degradation activity was measured at 25 degrees Celsius for 15 minutes. […] Incidentally, in the present test, in order to enhance the stability of the enzymes, 1 mM of CaCl2 was added to all the reaction solutions.

[6] = system: Deoxyribonucleic acid sodium salt from salmon testes; test: effects of pH on enzyme activity; conditions: 25 degrees Celsius, 15 minutes, 1 mM MgCl2, 1 mM CaCl2
Protocol: At each level of pH, the nucleic-acid degradation activity was measured at 25 degrees Celsius for 15 minutes by using, as substrate, Deoxyribonucleic acid sodium salt from salmon testes 0.4 mg/mL (manufactured by Sigma-Aldrich; Cat no. D1626-1G) in 20 mM of the following solution containing 1 mM of MgCl2 and 1 mM of CaCl2: 2-morpholino ethanesulfonic acid; monohydrate/NaOH(MES, pH 5.5 to 7.0); 3-morpholino propanesulfonic acid/NaOH (MOPS, pH 7 to 8); N-tris(hydroxymethyl)methyl-3-aminopropanesulfonic acid/NaOH (TAPS, pH 8 to 9); N-cyclohexyl-2-aminoethanesulfonic acid/NaOH (CHES, pH 9 to 9.5); or N-cyclohexyl-3-aminopropanesulfonic acid/NaOH (CAPS, 9.5 to 10).

[7] = system: RNA (mRNA derived from yeast); test: degrading activity for RNA
[8] = system: linear double-stranded DNA (pUC18 plasmid cut by BamHI, SacI, SmaI); test: degradation pattern of linear double-stranded DNA; conditions: for degradation of linear double-stranded DNA regardless of the structure of DNA strand ends: 5'-protruding, 3'-protruding and flush ends; for efficiency of degradation of linear double-stranded DNA compared with circular DNA: comparison of FIGS. 12, 16, 17
Description: With the use of the standard specific activity measurement method, as well as of a substrate obtained by making circular DNA (pUC18 plasmid) linear by using restriction nucleases BamHI (which generates a 5′-protruding end), SacI (which generates a 3′-protruding end), and SmaI (which generates a flush end), a degradation reaction took place with the use of NucS and NucL (referring to FIGS. 16 and 17).
Given the above results, it is presumed that NucL has a reaction style called an endo-exo type.

B1: NucS: low-molecular-weight nucleolytic enzyme, about 17 to 21 kDa, secreted by Streptomyces sp. MBE174; SEQ ID NO. 3 (protein)
chain: MPKLYARRRFAVLAALTGLIASAGLFHGPAASAALPTPVSAATARGYLASLKVAPENRTGYKRDLFPHWITQSGTCNTRETVLKRDGTNVVTDAACAATSGSWYSPFDGATWTAASDVDIDHLVPLAEAWDSGASAWTTAQRQAFANDLTRPQLLAVTDTVNQSKGDKDPAEWMPPRAAYHCTYVRAWVQVKYYYGLSVDTAEKTALTNRLAGC
modifications: Streptmyces sp. MBE174
- reaction style in initial stage of degradation of circular DNA [1]: degradation activity of an endo-type style
- specific activity of NucS relative to Benzonase (Salmon sperm DNA; same substrate): about 3.8 times
- specific activity (Salmon sperm DNA): 3.6×10^6 U/mg-protein
- optimum reaction temperature [2]: around 55 degrees Celsius
- efficiency of degrading thermally-denatured DNA compared with native DNA [3]: at the same level of efficiency
- phosphate concentration that made the enzyme inactive ([4]; potassium phosphate buffer pH 8.5, 1 mM MgCl2, 1 mM CaCl2, 25 degrees Celsius): ≥ 0.5 mM
- activity in the presence of 1 to 2 mM of MnCl2 compared with MgCl2 [5]: substantially the same level of activity
- requirement of divalent metal salt for activation [5]: required divalent metal salt for activation
- optimum reaction pH [6]: around 8.5
- RNA degrading activity [7]: showed RNA degrading activity
- degradation of linear double-stranded DNA regardless of the structure of DNA strand ends [8]: can degrade
- efficiency of degradation of linear double-stranded DNA compared with circular DNA [8]: at the same level of efficiency

B2: NucL: nucleolytic enzyme of about 66.5 kDa secreted by Streptomyces sp. MBE174; SEQ ID NO. 4 (protein)
chain: MASQSVTRLAALTVAATCSAASVVVLGPPAHADSVRIHDIQGTTRISPYAGRQVADVPGVVTGVRDHGSSRGFWFQDPRPDDDPATSEGVFVFTGSAPGVEAGDAVTVSGTVSEFVPGGTASGNQSLTEITRPTVTVVSRGNPVPDPVVVSARSVPHAYAPAGDAAANGSVNALPLRPDRYALDYYESLEGMNVQVADARVVGATDPYTELWVTVKPGENASPRGGTVYGSRDAQNTGRLQIQTLGVPAGFPAADVGDTLAGATTGPLDYNQFGGYTLVARSLGTLTAGGLARETTREQHRDELSVATYNVENLDPSDGTFAAHAEAIVRNLRSPDIVSLEEIQDDNGATDDGTVTAGVTVGKLIDAVVAAGGPRYDWRSVDPVDKADGGQPGGNIRQVFLFDPRRVSFADRPGGDAVTATGVVKVRGKAALTHSPGRVDPANPAWLNSRKPLAGEFSFRGRTVFVIANHFASKGGDQGLTSQYQPPARSSETQRHLQATAVNTFVKQILAVQKNADVIALGDINDFEFSGTTERLEAGGALWSAVRSLPPGERYSYVYQGNSQVLDQILVSPSIRRGHLSYDSVHINAEFHDQISDHDPQVLRYRP
modifications: Streptmyces sp. MBE174
- reaction style in initial stage of degradation of circular DNA [1]: reaction pattern similar to a single strand-specific, endo-type nucleolytic enzyme
- specific activity (Salmon sperm DNA): 5.6×10^4 U/mg-protein
- optimum reaction temperature [2]: around 45 degrees Celsius
- efficiency of degrading thermally-denatured DNA compared with native DNA [3]: about five times higher
- activity maintained in the presence of phosphate ([4]; 10 mM of potassium phosphate, pH 8.5, 25 degrees Celsius): 50%
- requirement of divalent metal salt for activation [5]: required divalent metal salt for activation
- optimum reaction pH [6]: around 8.8
- RNA degrading activity [7]: did not show RNA degrading activity
- reaction style presumed from linear DNA degradation [8]: endo-exo type
- degradation of linear double-stranded DNA regardless of the structure of DNA strand ends [8]: can degrade
- efficiency of degradation of linear double-stranded DNA compared with circular DNA [8]: more efficiently

From US9217139B2, “Extracellularly secreted nuclease” (JAPAN AGENCY FOR MARINE-EARTH SCIENCE AND TECHNOLOGY, priority 2010, dated 2015)
